# Legend:
# [1] = target: DSA polymerase K276C,Q451C (Bacillus stearothermophilus) (UniProt Q04957); test: BLI; conditions: first round 1.75 vs 0.9; second round after incorporation 1.60; 300 nM, 100 mM KCl, 320 mM K-glutamate, 2 mM SrCl2; lower binary and ternary signal than CBT in …; scale: ratio correct to highest incorrect signal
# [2] = target: TEE polymerase K276C,Q307E,Q451C (Bacillus stearothermophilus) (UniProt Q04957); test: BLI; conditions: first round 1.10 vs 0.4; second round after incorporation 4.83; very low binary signal; 900 nM, 100 mM KCl, 320 mM K-glutamate, 2 mM SrCl2; scale: ratio correct to highest incorrect signal
substance,measurement,setting,value
"primed template, next correct nucleotides AT (Examples 3 and 5)",binding signal,[1],1.95
same,binding signal,[2],2.75

# — patent US20180155698
